According to article PMC12266122 (2025):

B1: FLAG-TSC22D2 (full length, wild type) [human] / HA-NRBP1 WT [human] (parent complex)
chain 1: MSKMPAKKKSCFQITSVTTAQVATSITEDTESLDDPDESRTEDVSSEIFDVSRATDYGPEEVCERSSSEETLNNVGDAETPGTVSPNLLLDGQLAAAAAAPANGGGVVSARSVSGALASTLAAAATSAPAPGAPGGPQLAGSSAGPVTAAPSQPPTTCSSRFRVIKLDHGSGEPYRRGRWTCMEYYERDSDSSVLTRSGDCIRHSSTFDQTAERDSGLGATGGSVVVVVASMQGAHGPESGTDSSLTAVSQLPPSEKMSQPTPAQPQSFSVGQPQPPPPPVGGAVAQSSAPLPPFPGAATGPQPMMAAAQPSQPQGAGPGGQTLPPTNVTLAQPAMSLPPQPGPAVGAPAAQQPQQFAYPQPQIPPGHLLPVQPSGQSEYLQQHVAGLQPPSPAQPSSTGAAASPATAATLPVGTGQNASSVGAQLMGASSQPSEAMAPRTGPAQGGQVAPCQPTGVPPATVGGVVQPCLGPAGAGQPQSVPPPQMGGSGPLSAVPGGPHAVVPGVPNVPAAVPAPSVPSVSTTSVTMPNVPAPLAQSQQLSSHTPVSRSSSIIQHVGLPLAPGTHSAPTSLPQSDLSQFQTQTQPLVGQVDDTRRKSEPLPQPPLSLIAENKPVVKPPVADSLANPLQLTPMNSLATSVFSIAIPVDGDEDRNPSTAFYQAFHLNTLKESKSLWDSASGGGVVAIDNKIEQAMDLVKSHLMYAVREEVEVLKEQIKELVERNSLLERENALLKSLSSNDQLSQLPTQQANPGSTSQQQAVIAQPPQPTQPPQQPNVSSA
chain 2: not shown

Variants of: B1
Experiment: co-immunoprecipitation (HA-IP) with immunoblot densitometry; HEK293 cells stably expressing HA-NRBP1, 36 hours after transfection; N = 2, n = 2; read off a plot

Variant | response
chain 1 R161E, chain 1 F162A, chain 1 R179E | ~0.02
chain 1 R179E | ~0.09
chain 1 R161A, chain 1 F162A | ~0.35

Results, then the variant that gave them:

response | Variant
~0.76 | chain 1 R161A
~0.22 | chain 1 R179A
